# Data as given in patent US12065471B2, “B*44 restricted peptides for use in immunotherapy against cancers and related methods” (Immatics Biotechnologies GmbH, priority 2018, dated 2024).
# Target: HLA-B*44:05 (Homo sapiens, UniProt P01889, A223V/A65T/A93T/A95T/D201E/D98Y/E176V/E187L/E204Q/E69K/G107R/H137Y/K202T/L105A/L119I/N104T/N87E/Q56L/Q94N/R106L/R155S/R180D/S101N/S121R/S35A/S48T/T118I/V36M/W191S/Y91S)
# Test: MHC binding assay (UV-ligand exchange, β2m ELISA, peptide exchange yield)
# Conditions: binding to HLA-B*44:05
# How it was run: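 Peptide–HLA complexes formed by UV-ligand exchange of a UV-cleavable peptide for the test peptide. Exchange yield measured by β2m ELISA: complexes diluted 100-fold and captured on streptavidin, detected with HRP anti-β2m and TMB, read at 450 nm. Quantified against refolded HLA-A*02:01/MLA-001 monomer standards, 15-500 ng/ml.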
row,"Peptide exchange (MHC class I binding score, peptide exchange yield)",Substance
1,+++ (>50 = +++),437 (HEDPSGSLHL; listed as Homo sapiens) [compound 437]
2,++ (>20% = ++),286 (DELSVGRY; listed as Homo sapiens) [compound 286]
3,++++ (>75% = ++++),326 (RELLDFSSW; listed as Homo sapiens) [compound 326]
4,++++ (>75% = ++++),301 (AERIMFSDL; listed as Homo sapiens) [compound 301]
5,++ (>20% = ++),256 (RLLPGKVVW; listed as Homo sapiens) [compound 256]
6,++++ (>75% = ++++),381 (QELMAFSFAGL; listed as Homo sapiens) [compound 381]
7,+++ (>50 = +++),409 (QEAKPRATW; listed as Homo sapiens) [compound 409]
8,++ (>20% = ++),283 (VEEEISRHY; listed as Homo sapiens) [compound 283]
9,+++ (>50 = +++),116 (AEANPRDLGASW; listed as Homo sapiens) [compound 116]
10,+++ (>50 = +++),374 (NEAEWQEIL; listed as Homo sapiens) [compound 374]
11,++ (>20% = ++),157 (SQDVAGTTF; listed as Homo sapiens) [compound 157]
12,++++ (>75% = ++++),258 (IEVSSPITL; listed as Homo sapiens) [compound 258]
13,++++ (>75% = ++++),87 (GEARGDQVDW; listed as Homo sapiens) [compound 87]
14,+++ (>50 = +++),313 (EEINQGGRKY; listed as Homo sapiens) [compound 313]
15,++ (>20% = ++),150 (SEVFHVSEA; listed as Homo sapiens) [compound 150]
16,+++ (>50 = +++),240 (MELQVSSGF; listed as Homo sapiens) [compound 240]
17,++++ (>75% = ++++),417 (EESFRCLPEW; listed as Homo sapiens) [compound 417]
18,+++ (>50 = +++),86 (QTLKAMVQAW; listed as Homo sapiens) [compound 86]
19,+++ (>50 = +++),136 (EEMPEEIHL; listed as Homo sapiens) [compound 136]
20,+++ (>50 = +++),321 (AENPLNIFYI; listed as Homo sapiens) [compound 321]
21,+++ (>50 = +++),376 (SESDGIEQL; listed as Homo sapiens) [compound 376]
22,++++ (>75% = ++++),292 (HELALRQTV; listed as Homo sapiens) [compound 292]
23,++ (>20% = ++),314 (EMREERKF; listed as Homo sapiens) [compound 314]
24,++ (>20% = ++),414 (AEGYLDLDGI; listed as Homo sapiens) [compound 414]
25,+ (>10% = +),278 (DQVTVFLHF; listed as Homo sapiens) [compound 278]
26,+++ (>50 = +++),219 (WEVEVGDRTDW; listed as Homo sapiens) [compound 219]

row,"Peptide exchange (MHC class I binding score, peptide exchange yield)",Substance
1,++ (>20% = ++),2 (EEFLRPRSL; listed as Homo sapiens) [compound 2]
2,+++ (>50 = +++),195 (MEIKGTVTEF; listed as Homo sapiens) [compound 195]
3,++++ (>75% = ++++),336 (QEVNISLHY; listed as Homo sapiens) [compound 336]
4,+++ (>50 = +++),236 (LEDQLKPMLEW; listed as Homo sapiens) [compound 236]
5,+++ (>50 = +++),397 (EECGKAFSVF; listed as Homo sapiens) [compound 397]
6,+++ (>50 = +++),194 (TEGDVLNYIF; listed as Homo sapiens) [compound 194]
7,++++ (>75% = ++++),205 (MEIEGAGNFL; listed as Homo sapiens) [compound 205]
8,+++ (>50 = +++),128 (TELTEARVQVW; listed as Homo sapiens) [compound 128]
9,+++ (>50 = +++),341 (HELESENKKW; listed as Homo sapiens) [compound 341]
10,++ (>20% = ++),300 (KQTEATMTF; listed as Homo sapiens) [compound 300]
11,+++ (>50 = +++),50 (SEYVHSSFSGF; listed as Homo sapiens) [compound 50]
12,+++ (>50 = +++),452 (NEVDGEYRY; listed as Homo sapiens) [compound 452]
13,++ (>20% = ++),361 (EDASLMGLY; listed as Homo sapiens) [compound 361]
14,+++ (>50 = +++),312 (KEWEREKAVSL; listed as Homo sapiens) [compound 312]
15,+++ (>50 = +++),407 (MEFQNTQSY; listed as Homo sapiens) [compound 407]
16,+ (>10% = +),110 (EVEVGEVKSW; listed as Homo sapiens) [compound 110]
17,+++ (>50 = +++),375 (HEATFGEKRF; listed as Homo sapiens) [compound 375]
18,++ (>20% = ++),181 (HEVAQDDHL; listed as Homo sapiens) [compound 181]
19,+++ (>50 = +++),434 (AEQQQQQMY; listed as Homo sapiens) [compound 434]
20,+++ (>50 = +++),453 (SESKVFQLL; listed as Homo sapiens) [compound 453]
21,++++ (>75% = ++++),305 (AEKNRRDAETW; listed as Homo sapiens) [compound 305]
22,++++ (>75% = ++++),348 (SEVLLTSISTF; listed as Homo sapiens) [compound 348]
23,++++ (>75% = ++++),371 (NEIGQELTGQEW; listed as Homo sapiens) [compound 371]
24,++ (>20% = ++),228 (LEYEAPKLY; listed as Homo sapiens) [compound 228]
25,+++ (>50 = +++),334 (LEWQNSSSM; listed as Homo sapiens) [compound 334]
